What was measured:
[1] = target: AAV1 capsid protein VP3 (AAV1); experiment: cell-based or functional assay
[2] = target: AAV2 capsid protein VP3 (AAV2) (UniProt P03135); experiment: cell-based or functional assay
Sequence of UniProt P03135 (P03135 203-735 limits assumed): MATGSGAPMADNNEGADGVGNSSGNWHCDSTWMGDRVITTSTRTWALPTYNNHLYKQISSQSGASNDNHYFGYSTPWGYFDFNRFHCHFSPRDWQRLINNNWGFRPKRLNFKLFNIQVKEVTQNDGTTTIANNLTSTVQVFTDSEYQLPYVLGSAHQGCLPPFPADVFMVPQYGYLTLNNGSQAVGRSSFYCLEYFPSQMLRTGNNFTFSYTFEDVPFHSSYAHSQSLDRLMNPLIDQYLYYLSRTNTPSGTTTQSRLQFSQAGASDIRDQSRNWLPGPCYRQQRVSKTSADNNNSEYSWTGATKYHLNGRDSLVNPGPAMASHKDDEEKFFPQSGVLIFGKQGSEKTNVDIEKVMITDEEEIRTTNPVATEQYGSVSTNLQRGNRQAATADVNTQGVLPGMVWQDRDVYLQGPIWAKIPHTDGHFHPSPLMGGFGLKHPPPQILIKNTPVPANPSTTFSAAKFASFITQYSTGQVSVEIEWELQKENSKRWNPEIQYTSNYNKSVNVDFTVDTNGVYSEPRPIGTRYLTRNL

Which results are given for “C-terminally truncated AAP (AAPtru) of AAV2 expressed from pVP2N-gfp (from UniProt D5SGZ8 2-177)”?
Particle titer (AAV1 capsid ELISA) after trans-complementation [1]: 3.4e+10; Particle titer (AAV2 capsid ELISA) after trans-complementation [2]: 2.1e+11
